Measurements as given in the nanobody polyreactivity screen of Harvey et al. (2022).

Test: yeast display, Sf9 membrane polyspecificity reagent, FACS + sequencing; frameworks hold sequencing errors
In short: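 Galactose induction of a Saccharomyces cerevisiae BJ5465 synthetic nanobody display library ran 36–48 hours. The cells were then stained for 1 hour at 4 °C with 10% biotinylated, detergent-solubilized Sf9 membrane reagent, pulled down on streptavidin microbeads and FACS-sorted into low and high (top ~1%) gates on expression and reagent-binding fluorescence. Labels for polyreactivity follow the gate of origin.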

Question: For “QVQLVESGGGLVQAGGSLRLSCAASGSTFVVNAMGWYRPAPGKERELVAAIDGSDGSTYYADSVKGRFTISRDNAKNTVYFQMNSLKPEDTAVYYCAAEVLGRPDVENDYWGQGTQVTVSS”, which “polyreactivity (PSR sort gate)” value is on record?
Answer: low polyreactivity

Question: With “QVQLVESGGGLVQAGGSLRLSCSASGFIFTYVMGWYRQAPGKERELVAVITNGGSTYYADSVKGRFTISRDNAMNTVYLQMNSLKPEDTAVYYCAARARFRYDSYYYWGQGTQVTVSS” as the sequence, how does the “polyreactivity (PSR sort gate)” value read?
Answer: high polyreactivity

Question: For “QVQLLESGGGLVQAGGSHRLSCAASGIIFQWNVMGWYRQAPGKERELVASITSGSSTHYADSVKVRFTISRDNAKNSVYLQMNSLKPEDTAVYYFAADGALRAEYDVEIEYDYWGQGTQVNVSS”, which “polyreactivity (PSR sort gate)” value is on record?
Answer: low polyreactivity

Question: Which “polyreactivity (PSR sort gate)” value does the source give for “QVQLVESGVGIVQAGGSLRLSCAASGSTFVSNAMGWYIPAPGKERELVAAISWTGGSTYYADSVKGRFTISRDNAKTTVYLQMNSLKPEDTAVYYCAAQLTDTYYQYDYWGQVTQVTVSS” here?
Answer: low polyreactivity

Question: With “QVQLVESWGGLVQAGGSLRLICAASGRIFYPYAMGWYRQAPGKERELVASITSGGGSYYADSVKGRFTISRDNAKNTVYLQMNSLKPEDTAVYYCAAPYITPYGTYVFSSVYWGQGTQVTVSS” as the sequence, how does the “polyreactivity (PSR sort gate)” value read?
Answer: low polyreactivity

Question: With “QVQLEESGGGLVQAGGSLRLSCAASGLTFEWYTMGWYRQAPGKERELVAVITVSGSSTYYADSVKGRFSISRDNAKNTVYLQMNSLKPEDTAVYYCNADWSFYSYTLYDYWGQGTQVTVSS” as the sequence, how does the “polyreactivity (PSR sort gate)” value read?
Answer: low polyreactivity

Question: For “QVQLVESGGGLVQAGGSLRLSCAASGFIYYRYAMGWYRQAPGKERELVAAISRSGGSTYYADSVKGRFTISRDNAKNTVYLQMNSLNPEDTAVYYCAARDPGGAVGAAFDSWGQCTQVTVSS”, which “polyreactivity (PSR sort gate)” value is on record?
Answer: low polyreactivity

Question: Which “polyreactivity (PSR sort gate)” value does the source give for “QVQLVESGGGLVQAGGSLRLSCAASGFTLTAYAMGWYRQARGKEREFVAAISTSGTRTYYADSVKGRFTISRDNAKNTVYLQMNSLKPEDTAVYYCGARYSGYQYWKFNYWGQGTQVTVSS” here?
Answer: high polyreactivity

Question: With “QVQLVESGGGLVQAGGSLRLSCAASGIIFALYAMGWYRQAPGKERELVATITYSGGSTYYADSVKGRFTISRDNAKNTVYLQMNSLKPEDTAVYYCAADYYILRWRQTNDYWGQGTQVTVSS” as the sequence, how does the “polyreactivity (PSR sort gate)” value read?
Answer: low polyreactivity

Question: Which “polyreactivity (PSR sort gate)” value does the source give for “QVQLVESGGGLVQAGGSLRLSCAASGRTFWWYAMGWYRQAPGKEREFVAAISQRGTSTYYADSVKGRFTISRDNAKNTVYLQMNSLKPEDTAVYYCAAPLYRRWEVTYDYWGQGTQVTVSS” here?
Answer: high polyreactivity

Question: For “QVQLVESGGGLVQAGGSLRLICAASGGIFWYNAMGWYRPAPGKERELVADISSSGITYYADSVKGRFTISRDNAKNTVYLQMNSLKPEDTAVYYCAADSTTRPGLRVYDDYDYWGQGTQLTVSS”, which “polyreactivity (PSR sort gate)” value is on record?
Answer: low polyreactivity

Question: For “QAQLKESGGSLVQAGGGLRLSCAASGYNSVGSVMGWYRQAPSKERELVASIDQGANTNYADSVKGRFTISRDNAKNNVYLQMNSLKPEDTAVYYCATETTYFLNYWGQGTQVTVSS”, which “polyreactivity (PSR sort gate)” value is on record?
Answer: low polyreactivity

Question: For “QLQLVESGGGLVQAGGSLRLSCAASGRIFKEYAMGWYRQAPGQERELVAAISWRGGSTYYADSVKGRFTISRDNAKNTVNLQMNSLKPEDTAVYYCARVVSRNTHPYYHWGQVTQVTVSS”, which “polyreactivity (PSR sort gate)” value is on record?
Answer: low polyreactivity

Question: With “QVQLVESGGGLVQAGGSLRLSCAASGRIFYPYAMGWYRQAPGKERELVAAISLSGGSTLYADSVKGRFTISRDNAKNTVYLQMNSLKPEDTAVYYCAADQRTRYQTRQYYYWGQGTQVTVSS” as the sequence, how does the “polyreactivity (PSR sort gate)” value read?
Answer: low polyreactivity

Question: For “QVQLVESGGGLVQAGGSLRLSCAASGRIFLYTAMGWYRQAPGKERELVAAIDGGGTTYADSVKGRFTISRDNAKNTVYLQMNSLKPEDTAVYYCAGDWYYQYSIYRYGYWGQGTQVTVSS”, which “polyreactivity (PSR sort gate)” value is on record?
Answer: low polyreactivity

Question: With “QVQLVESGGGLVQAGGSLRLSCAASGIIFSYNVMGWYRQAPGTERELVAGISRSGGSTYYADSVKGRFTISRDNAKNTVYLQMNSLKPEDTAVYYCNRVSYGPYYSYWSDFGYWGQGTQVTVSS” as the sequence, how does the “polyreactivity (PSR sort gate)” value read?
Answer: high polyreactivity

Question: With “QVQLVESGGGLVQAGGSLRLSCAASGRIFKWNAMGWYRQAPGKDRELVAAINLSTRSTYYADSVKGRFTISRDNAKNTVYLEMHSLKTVDTAVYYCAAVTYANYYYDAYYYWGQGSQVTVSS” as the sequence, how does the “polyreactivity (PSR sort gate)” value read?
Answer: high polyreactivity

Question: For “QVQLVESGGGLVQAGGSLRLSCAASGFIFSLYAMGWYRQAPGKERELVAVITWSDGRTYYADSVKGRFTISRDNAKNTVYLQMNSLKPEDTAVYYCAAADWITEYDYWGQGTQVTVSS”, which “polyreactivity (PSR sort gate)” value is on record?
Answer: low polyreactivity

Question: For “QVQLVESGGGLVQAGGSLRLSCAASGSILTDNAMGWYRQAPGKERELVASITGSGGSTYYADSVKGRFTISRDNAKNSVYLQMNSLKRVDTAVYYCAASYRLRYGYWGQGTQVTVSS”, which “polyreactivity (PSR sort gate)” value is on record?
Answer: high polyreactivity

Question: Which “polyreactivity (PSR sort gate)” value does the source give for “QVQLVESGGGLVQAGGSLRLCCAASGLTFAYYDMGWYRQAPGKERELVAAITSGGTTNYADSVKGRFTISRDNAKNTVYLQMNSLKPEDNAVYYCATDSWYGSWKYDYWGQGTQVTLSS” here?
Answer: low polyreactivity

Question: Which “polyreactivity (PSR sort gate)” value does the source give for “QVQLVESGGGLVQAGGSLRLSCAASGSTFTYYAMGWYRQAPGKERELVAAISRRGGSTYYADSVKGRFTISRDNAKNTVYLQMNSLKPEDTAVYYCAAASHGRFYYWGQGTQVTVSS” here?
Answer: high polyreactivity

Question: For “QVQLVESGGGLVQAGGSLRLSCAASGLIFVQNAMGWYRPAPGKERELVAAISSRGTNTYYADSVKGRFTISRDTAKNTVYLQMNSLKPEDTAVYYCAKPLKTPRPNYDYWGQGTQVTVSS”, which “polyreactivity (PSR sort gate)” value is on record?
Answer: low polyreactivity

Question: With “QVQLVESGGGLDQAGGSLRLSCAASGFIFVRNAMGWYRQAPGKERELVAAITGRGGRTYYADSVKGRFTISRDNAKNTVYLQMNSLKPEDTAVYYCAKDSPDDHFGYWGQGTQVTVSS” as the sequence, how does the “polyreactivity (PSR sort gate)” value read?
Answer: high polyreactivity

Question: Which “polyreactivity (PSR sort gate)” value does the source give for “QVQLVESGGGLVQAGGSLRLSCAASGRTFNYYAMGWYRQAPGKERELVAAISSGGSTDYADSVKGRFTISRDNAKNTVYLQMNSMKPEDTAVYYCNAESYPGWAYFAYDYQFDYWGQGTQVTVSS” here?
Answer: low polyreactivity

Question: With “QVQLVESGGGIVQAGGSLRISFAASGFTFLGNAMGWYRQEPGKERELVARISTRGGTTYYADSVKGRFTISRDNAKYTVYFQMNRLKPEDTAVYYCAKKYYLYSPYRTGYDYWGQGTQVTVSS” as the sequence, how does the “polyreactivity (PSR sort gate)” value read?
Answer: high polyreactivity

Question: With “QVQLVESGGGLVQAGGSLRLSCAASGRTFDIYAMGWYRQAPGKERELVAAISSGGSTYYADSVKGRFTISRDNAKNTVYLQMNSLKPEDTAVYYCAVRWYDQVSRRGIGYYWGQGTQVTVSS” as the sequence, how does the “polyreactivity (PSR sort gate)” value read?
Answer: low polyreactivity

Question: Which “polyreactivity (PSR sort gate)” value does the source give for “QVQLVESGGGLVQAGGSLRLSCAASGRTFPYNAMGRYRQAPGKERELVAAISGRGGSTYYADSVKGRFTISRDNAKNTVYLQMNSLKPEDTAVYYCAVYTIYGFYYWGQGTQVTVSS” here?
Answer: high polyreactivity

Question: For “QVQLVESGGGLVQAGGSLRLSCAASGSTFVHYAMGWYRQAPGKERELVAAINDGGSTHYADSVKGRFTISRDNAKNTVYLQMHSLKPEDTAVYYCAAEYVWYRYPDYWGAYDYWGQGTQVTVSS”, which “polyreactivity (PSR sort gate)” value is on record?
Answer: low polyreactivity

Question: Which “polyreactivity (PSR sort gate)” value does the source give for “QFQLVESGGGLVQAGGSLRLSCAASGYTFAVNTMGWYRQAPGKESELVAAITLGGGSTYYADSVKGRFTISRDNAKNTVYLQMNSLKPEDTAVYYCATDPVDYRGWWRGYKYDYWGQGTQVTVSS” here?
Answer: low polyreactivity

Question: For “QVQLVESGGGLVQAGGSLRLSCAASGFTFKRYAMGWYRQAPGKERELVAAITGSGGSTYYADSVKGRFTISRDNAKNTVYLQMNSLKPEDTAVYYCAKKRIYWSGRPTIGTYIMGYWGQGTQVTVSS”, which “polyreactivity (PSR sort gate)” value is on record?
Answer: high polyreactivity

Question: Which “polyreactivity (PSR sort gate)” value does the source give for “QVQHVESGGGLVQAGGSLRLSCAASGSTFPGYAMGWYRQAPGKERELVAAISKRGGSTRYADSVKGRFTISRDNAINTVYLQMNSLKPEDTAVYYCAASYSYSGSGGGYWGQGTQVTVSS” here?
Answer: high polyreactivity

Question: With “QVQLVESGGGLVQAGGSLRLSCAASGSIFGYYGMGWYRQAPGKERELVATITSGGSTNYADSVKGRFTISRDNAKNTVYLQMNSLKPEDTAVYYCARQYGYQPERYGYWGQGTQVTVSS” as the sequence, how does the “polyreactivity (PSR sort gate)” value read?
Answer: low polyreactivity

Question: For “QVQLVESGGGLVQAGGRLRLSCAASGFIFYFYAMGWYRQAPGKERELVAAISWSGGSPYYADSVKGRFTISRDNAKNTVYLQMNSLKPEDTAVYYCAADTRTSYYNDDYDYWGQGTQVTVSS”, which “polyreactivity (PSR sort gate)” value is on record?
Answer: low polyreactivity

Question: With “QVQLVESGGGLVQAGGSLSLSCAASGGTFYQYAMGWYRQAPGKERELVAAISTSGARTYYADSVKGRFTISRDNAKNTVYLQMNSLKTEDTAVYYCAADHIRGGLDYWGQGTQVTVSS” as the sequence, how does the “polyreactivity (PSR sort gate)” value read?
Answer: high polyreactivity

Question: For “QFQLVESVGGLVQAGGSLRLSCAASGTTIPSYAMGWYRQAPGKERELVASITYSDGTTRYADSVKGRFTISRDNAKNTVYLQMNSLKPEDTAVYYCNAVYYREGMDYWGQGTQVTVSS”, which “polyreactivity (PSR sort gate)” value is on record?
Answer: low polyreactivity

Question: For “QVQLVESGGGLVQAGGSLRLSCAASGITFYYYAMGWYRQAPGKERELVAAINSGGITNYADSVKGRFTISRDNAKNTVYLQMNSLKPEDTAVYYCAASSGFRYRYGYWGQGTQVTVSS”, which “polyreactivity (PSR sort gate)” value is on record?
Answer: high polyreactivity

Question: With “QVQLEESGGGLVQAGGSIRLSCAASGSTFYTNAMGWYRQAPGKERELVAAISSSGDSTYYADSVKGRFTISRDTAKNTVYLQMNSLKPEDTAVYYCNADRRSYNGFRYYYWGQGTQVTVSS” as the sequence, how does the “polyreactivity (PSR sort gate)” value read?
Answer: low polyreactivity

Question: With “QVHLVESGGGLVQAGGSLRLSCAASGLTFYYYVMGWYRQAPGKERELVAAISYSGGRTYYADSVKGRFTISRDNAKNTVYLQMNSLKPEDTAVYYCAAQSRYGGKFYYWGQGTQVTVSS” as the sequence, how does the “polyreactivity (PSR sort gate)” value read?
Answer: high polyreactivity

Question: Which “polyreactivity (PSR sort gate)” value does the source give for “QVQLVESGGGLVQAGGSLRLSCAASGRIVKYAMGWYRQAPGKERELVAAISGSGGTTYYADSVKGRFTISRDNAKNTVYLQMNSLKPEDTAVYYCAASRPRPPSSRRMDYWGQGTQVTVSS” here?
Answer: high polyreactivity

Question: For “QVQLVESGGGLVQAGGSLRLSCAASGRIFAAYAMGWYRQAPGKERELVAAITRRGSTYYADSVKGRFTISRDNAKNTVYLQMNSLKPEDTAVYYCNKVPLFQYSTAWYDYWGQGTQVTVSS”, which “polyreactivity (PSR sort gate)” value is on record?
Answer: high polyreactivity

Question: Which “polyreactivity (PSR sort gate)” value does the source give for “QVQLVESGGGLVQAGGSLRLSCAASGRILKSYAMGWYRQAPGKERELVAAITSSGVSTYYADSVKGRFTISRDNAKNTVYLQMNSLKPEDTAVYYCAARNYRYPIMGYWGQGTEVTVSS” here?
Answer: high polyreactivity
